Measurements: PMC3784611 (Biochemistry, 2013)

B1: myristoylated recoverin spin-labeled only at Cys39 (natural protein, bovine)
chain: GNSKSGALSKEILEELQLNTKFTEEELSSWYQSFLKECPSGRITRQEFQTIYSKFFPEADPKAYAQHVFRSFDANSDGTLDFKEYVIALHMTSAGKTNQKLEWAFSLYDVDGNGTISKNEVLEIVTAIFKMISPEDTKHLPEDENTPEKRAEKIWGFFGKKDDDKLTEKEFIEGTLANKEILRLIQFEPQKVKEKLKEKKL
modifications: N-terminal myristoyl group; nitroxide spin label at the native cysteine C39

Tests used:
[1] = target: unmyristoylated recoverin (bovine) (UniProt P21457); assay: 15N NMR relaxation
[2] = target: unmyristoylated recoverin (bovine) (UniProt P21457); assay: NMR pulsed-field gradient diffusion
[3] = target: the molecule itself; assay: CW-EPR line shape

Molecule | stoichiometry N [1] | stoichiometry N [2] | stoichiometry N [3]
unmyristoylated recoverin (from UniProt P21457 1-202) (natural protein) | 2 | 2 | 
B1 |  |  | 2
